Source: the supplement of paper PMC9112550, “Optimization of the antimicrobial peptide Bac7 by deep mutational scanning” (BMC Biology, 2022)

System: Escherichia coli TOP10
Test: shrunken log2 fold change of peptide-encoding DNA abundance (4.5 h post-induction vs induction); higher = less antimicrobial activity (less host growth inhibition)
Details: time post-induction: 4.5 h; library: site-saturation at positions 5, 18, 19, 20
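Also: peptides expressed intracellularly from a pBAD plasmid library in pooled LB shake-flask culture, induced with 0.3% L-arabinose, DNA abundance read by NGS, three biological replicates, DESeq2 with apeglm shrinkage.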

| Sequence | shrunken log2 fold change |
| --- | --- |
| RRIRDRPPRLPRPRPRPMKFPRP | -0.00192 |
| RRIRDRPPRLPRPRPRPMKQPRP | -0.076 |
| RRIRDRPPRLPRPRPRPMLAPRP | 0.607 |
| RRIRDRPPRLPRPRPRPMLSPRP | 4.44e-05 |
| RRIRDRPPRLPRPRPRPMMLPRP | -0.0234 |
| RRIRDRPPRLPRPRPRPMNTPRP | -0.125 |
| RRIRDRPPRLPRPRPRPMPGPRP | 0.065 |
| RRIRDRPPRLPRPRPRPMPKPRP | -0.0503 |
| RRIRDRPPRLPRPRPRPMPPPRP | 0.361 |
| RRIRDRPPRLPRPRPRPMQRPRP | -0.00663 |
| RRIRDRPPRLPRPRPRPMSLPRP | -0.558 |
| RRIRDRPPRLPRPRPRPMTDPRP | -0.109 |
| RRIRDRPPRLPRPRPRPMTSPRP | -0.169 |
| RRIRDRPPRLPRPRPRPMVEPRP | 0.465 |
| RRIRDRPPRLPRPRPRPMYDPRP | -0.208 |
| RRIRDRPPRLPRPRPRPMYQPRP | -0.075 |
| RRIRDRPPRLPRPRPRPNAAPRP | 0.0798 |
| RRIRDRPPRLPRPRPRPNAGPRP | 0.149 |
| RRIRDRPPRLPRPRPRPNAHPRP | -0.0544 |
| RRIRDRPPRLPRPRPRPNCGPRP | 0.387 |
| RRIRDRPPRLPRPRPRPNDYPRP | -0.197 |
| RRIRDRPPRLPRPRPRPNLAPRP | -0.0121 |
| RRIRDRPPRLPRPRPRPNLGPRP | -0.00884 |
| RRIRDRPPRLPRPRPRPNLYPRP | -0.0872 |
| RRIRDRPPRLPRPRPRPNMWPRP | -0.152 |

| Sequence | shrunken log2 fold change |
| --- | --- |
| RRIRDRPPRLPRPRPRPNNHPRP | -0.543 |
| RRIRDRPPRLPRPRPRPNPCPRP | -0.328 |
| RRIRDRPPRLPRPRPRPNRFPRP | -0.00648 |
| RRIRDRPPRLPRPRPRPNRGPRP | -0.0177 |
| RRIRDRPPRLPRPRPRPNTMPRP | -0.167 |
| RRIRDRPPRLPRPRPRPNVQPRP | -0.131 |
| RRIRDRPPRLPRPRPRPNWAPRP | 0.00788 |
| RRIRDRPPRLPRPRPRPNYSPRP | -0.792 |
| RRIRDRPPRLPRPRPRPPCPPRP | 0.173 |
| RRIRDRPPRLPRPRPRPPCRPRP | -0.0227 |
| RRIRDRPPRLPRPRPRPPDFPRP | 0.0426 |
| RRIRDRPPRLPRPRPRPPDGPRP | 0.577 |
| RRIRDRPPRLPRPRPRPPETPRP | 0.743 |
| RRIRDRPPRLPRPRPRPPFAPRP | 0.427 |
| RRIRDRPPRLPRPRPRPPHLPRP | 0.0118 |
| RRIRDRPPRLPRPRPRPPIMPRP | 0.0621 |
| RRIRDRPPRLPRPRPRPPKKPRP | 0.0806 |
| RRIRDRPPRLPRPRPRPPLAPRP | 0.448 |
| RRIRDRPPRLPRPRPRPPPEPRP | 0.48 |
| RRIRDRPPRLPRPRPRPPQMPRP | 0.746 |
| RRIRDRPPRLPRPRPRPPQPPRP | 0.387 |
| RRIRDRPPRLPRPRPRPPRHPRP | 0.377 |
| RRIRDRPPRLPRPRPRPPRMPRP | 0.345 |
| RRIRDRPPRLPRPRPRPPSMPRP | -0.147 |
| RRIRDRPPRLPRPRPRPPVCPRP | 0.452 |

| Sequence | shrunken log2 fold change |
| --- | --- |
| RRIRDRPPRLPRPRPRPPVPPRP | 0.635 |
| RRIRDRPPRLPRPRPRPPYKPRP | -0.1 |
| RRIRDRPPRLPRPRPRPPYQPRP | 0.251 |
| RRIRDRPPRLPRPRPRPQALPRP | 0.214 |
| RRIRDRPPRLPRPRPRPQAVPRP | 0.164 |
| RRIRDRPPRLPRPRPRPQCHPRP | -0.0594 |
| RRIRDRPPRLPRPRPRPQCIPRP | -0.0275 |
| RRIRDRPPRLPRPRPRPQDMPRP | -0.628 |
| RRIRDRPPRLPRPRPRPQDNPRP | -0.0684 |
| RRIRDRPPRLPRPRPRPQECPRP | 0.0795 |
| RRIRDRPPRLPRPRPRPQHAPRP | 0.044 |
| RRIRDRPPRLPRPRPRPQHNPRP | -0.554 |
| RRIRDRPPRLPRPRPRPQKIPRP | 0.0171 |
| RRIRDRPPRLPRPRPRPQKKPRP | -0.0848 |
| RRIRDRPPRLPRPRPRPQKYPRP | -0.432 |
| RRIRDRPPRLPRPRPRPQLSPRP | 0.103 |
| RRIRDRPPRLPRPRPRPQRHPRP | 0.0682 |
| RRIRDRPPRLPRPRPRPQRNPRP | -0.0378 |
| RRIRDRPPRLPRPRPRPQRWPRP | 0.287 |
| RRIRDRPPRLPRPRPRPQSQPRP | 0.112 |
| RRIRDRPPRLPRPRPRPQVEPRP | 0.0699 |
| RRIRDRPPRLPRPRPRPQWLPRP | 0.24 |
| RRIRDRPPRLPRPRPRPQYHPRP | -0.47 |
| RRIRDRPPRLPRPRPRPRAEPRP | 0.552 |
| RRIRDRPPRLPRPRPRPRCEPRP | 0.161 |

| Sequence | shrunken log2 fold change |
| --- | --- |
| RRIRDRPPRLPRPRPRPRCVPRP | 0.117 |
| RRIRDRPPRLPRPRPRPRDFPRP | 0.106 |
| RRIRDRPPRLPRPRPRPREDPRP | 0.293 |
| RRIRDRPPRLPRPRPRPREQPRP | 1.36 |
| RRIRDRPPRLPRPRPRPRERPRP | 0.352 |
| RRIRDRPPRLPRPRPRPREYPRP | 0.306 |
| RRIRDRPPRLPRPRPRPRFGPRP | 0.206 |
| RRIRDRPPRLPRPRPRPRFNPRP | 0.858 |
| RRIRDRPPRLPRPRPRPRGGPRP | 0.726 |
| RRIRDRPPRLPRPRPRPRHYPRP | 0.0264 |
| RRIRDRPPRLPRPRPRPRIKPRP | -0.454 |
| RRIRDRPPRLPRPRPRPRKDPRP | -0.108 |
| RRIRDRPPRLPRPRPRPRKFPRP | -0.0848 |
| RRIRDRPPRLPRPRPRPRQFPRP | 0.0037 |
| RRIRDRPPRLPRPRPRPRQKPRP | 0.56 |
| RRIRDRPPRLPRPRPRPRQSPRP | -0.00504 |
| RRIRDRPPRLPRPRPRPRQTPRP | 0.612 |
| RRIRDRPPRLPRPRPRPRRTPRP | 0.186 |
| RRIRDRPPRLPRPRPRPRTLPRP | 0.14 |
| RRIRDRPPRLPRPRPRPRWVPRP | 0.263 |
| RRIRDRPPRLPRPRPRPRYSPRP | -0.662 |
| RRIRDRPPRLPRPRPRPSALPRP | 0.162 |
| RRIRDRPPRLPRPRPRPSATPRP | 0.515 |
| RRIRDRPPRLPRPRPRPSCVPRP | 0.282 |
| RRIRDRPPRLPRPRPRPSEKPRP | -0.0166 |

| Sequence | shrunken log2 fold change |
| --- | --- |
| RRIRDRPPRLPRPRPRPSERPRP | 0.0188 |
| RRIRDRPPRLPRPRPRPSFSPRP | -0.0351 |
| RRIRDRPPRLPRPRPRPSHMPRP | -0.0936 |
| RRIRDRPPRLPRPRPRPSIFPRP | -0.049 |
| RRIRDRPPRLPRPRPRPSILPRP | 0.202 |
| RRIRDRPPRLPRPRPRPSITPRP | -0.197 |
| RRIRDRPPRLPRPRPRPSKEPRP | -0.031 |
| RRIRDRPPRLPRPRPRPSKTPRP | 0.0521 |
| RRIRDRPPRLPRPRPRPSLKPRP | 0.155 |
| RRIRDRPPRLPRPRPRPSLNPRP | 0.138 |
| RRIRDRPPRLPRPRPRPSLRPRP | 0.188 |
| RRIRDRPPRLPRPRPRPSMCPRP | 0.123 |
| RRIRDRPPRLPRPRPRPSMNPRP | -0.152 |
| RRIRDRPPRLPRPRPRPSMRPRP | 0.334 |
| RRIRDRPPRLPRPRPRPSNAPRP | -0.184 |
| RRIRDRPPRLPRPRPRPSPLPRP | -0.126 |
| RRIRDRPPRLPRPRPRPSRIPRP | -0.307 |
| RRIRDRPPRLPRPRPRPSSLPRP | 0.15 |
| RRIRDRPPRLPRPRPRPSSYPRP | -0.738 |
| RRIRDRPPRLPRPRPRPSTWPRP | -0.0672 |
| RRIRDRPPRLPRPRPRPSVDPRP | 0.0621 |
| RRIRDRPPRLPRPRPRPSVMPRP | 0.198 |
| RRIRDRPPRLPRPRPRPSVNPRP | 0.0833 |
| RRIRDRPPRLPRPRPRPSYCPRP | -0.046 |
| RRIRDRPPRLPRPRPRPTAHPRP | 0.547 |

| Sequence | shrunken log2 fold change |
| --- | --- |
| RRIRDRPPRLPRPRPRPTAIPRP | 0.394 |
| RRIRDRPPRLPRPRPRPTALPRP | 0.573 |
| RRIRDRPPRLPRPRPRPTAPPRP | 0.365 |
| RRIRDRPPRLPRPRPRPTATPRP | 2.57 |
| RRIRDRPPRLPRPRPRPTAYPRP | -0.22 |
| RRIRDRPPRLPRPRPRPTCRPRP | 0.175 |
| RRIRDRPPRLPRPRPRPTDQPRP | 0.118 |
| RRIRDRPPRLPRPRPRPTEPPRP | 0.185 |
| RRIRDRPPRLPRPRPRPTESPRP | -0.00177 |
| RRIRDRPPRLPRPRPRPTFCPRP | 0.164 |
| RRIRDRPPRLPRPRPRPTGHPRP | 0.502 |
| RRIRDRPPRLPRPRPRPTGWPRP | 1.21 |
| RRIRDRPPRLPRPRPRPTHDPRP | 0.666 |
| RRIRDRPPRLPRPRPRPTHIPRP | -0.656 |
| RRIRDRPPRLPRPRPRPTIAPRP | 0.521 |
| RRIRDRPPRLPRPRPRPTISPRP | -0.0421 |
| RRIRDRPPRLPRPRPRPTKEPRP | -0.0917 |
| RRIRDRPPRLPRPRPRPTKKPRP | -0.0587 |
| RRIRDRPPRLPRPRPRPTLYPRP | 0.26 |
| RRIRDRPPRLPRPRPRPTMSPRP | 0.0526 |
| RRIRDRPPRLPRPRPRPTMVPRP | 0.028 |
| RRIRDRPPRLPRPRPRPTMYPRP | -0.107 |
| RRIRDRPPRLPRPRPRPTNDPRP | 0.0152 |
| RRIRDRPPRLPRPRPRPTPHPRP | 0.175 |
| RRIRDRPPRLPRPRPRPTQWPRP | 0.0594 |
